Experimental data published in US8026342B2, “Compositions and methods for binding sphingosine-1-phosphate” (Lpath, Inc., priority 2006, dated 2011).

Key:
[1] = system: retinal neovascularization; test: Murine model of retinopathy of prematurity: retinal neovascularization; type: in vivo, C57BL/6 mice; conditions: 5.0 μg/eye intravitreal
Experimental: C57BL/6 mice (n=7) were placed in 75% oxygen at day 7 of life and at day 12 of life were returned to room air and given an intraocular injection of 5 μg of sonepcizumab in one eye and vehicle in the contralateral eye. At day 17, the mice received an intraocular injection of anti-PECAM antibody labeled with FITC and after 8 hours, mice were euthanized and eyes were removed and fixed in PBS-buffered formalin at room temperature for 5 hours. Retinas were dissected and washed with phosphate-buffered saline containing 0.25% Triton X-100 and whole mounted. Slides were viewed with a Nikon Fluorescence Microscope and the area of retinal NV per retina was measured by image analysis.

[2] = system: CNV and vascular leakage; test: Vascular leakage and CNV area after laser rupture of Bruch's membrane; type: in vivo, C57BL/6 mice; conditions: 5 μg intraocular
Experimental: C57BL/6 mice (n=10) underwent laser rupture of Bruch's membrane in 3 locations in each eye and were given an intraocular injection of 5 μg of sonepcizumab in one eye and vehicle in the contralateral eye. At one week after laser rupture, the mice were given an intraperitoneal injection of 12 μl/g body weight of 1% fluorescein sodium and were euthanized 5 minutes later. The eyes were removed and fixed in PBS-buffered formalin at room temperature for 5 hours. Then the retinas were dissected, washed, and incubated with primary anti-PECAM-1. The retinas were then washed, incubated with secondary antibody (goat anti-rat IgG conjugated with rhodamine), and then flat mounted.
Quantification of CNV lesion area is measured by PECAM-1 staining. Quantification of vascular leakage is measured by fluorescein sodium staining. The total area of leakage from CNV=CNV+leakage (green)−area of CNV (red). Values represent the mean±SEM for n=10 mice/group. […] This is a 50% reduction in neovascularization (p-0.018). […] This is approximately a 38% reduction (p-0.017) in blood vessel leakage.

[3] = Surface plasmon resonance (Biacore 2000) binding to S1P-coated chip; conditions: read-out: Binding Affinity (KD1)
Experimental: Each concentration was tested in duplicate. […] All data were collected at 25° C.

[4] = system: experimental autoimmune encephalomyelitis; test: MOG35-55 induced EAE model of multiple sclerosis; type: in vivo, C57BL/6J mice
Experimental: Experimental protocol—the following experiments were conducted in the laboratory of Dr. Howard Weiner in collaboration with Lpath, Inc. A peptide fragment of myelin oligodendrocyte glycoprotein (MOG35-55; […] (SEQ ID NO: 52)) is used to cause experimental EAE in mice. Mendel, I. et al., A myelin oligodendrocyte glycoprotein peptide induces typical chronic experimental autoimmune encephalomyelitis in H-2b mice: fine specificity and T cell receptor V beta expression of encephalitogenic T cells, Eur J Immunol. 1995 July; 25(7):1951-9. EAE was induced in mice by immunization with a peptide corresponding to amino acids 35-55 of myelin oligodendrocyte glycoprotein (MOG) peptide (MOG35-55) to induce chronic experimental autoimmune encephalomyelitis (EAE). Following immunization with MOG35-55, mice develop an acute episode of EAE that is followed by a gradually developing progressive disease thought to model several features of progressive multiple sclerosis. Mice were treated with antibody to S1P and treated mice were followed to study the effects of S1P-specific antibody on the clinical manifestations of this acute model of EAE. At the end of the experiment, treated mice were also used to analyze the effect of anti-S1P administration on the immune response.
In a first set of experiments, using 10 mice per group with an average weight of 20 gr, EAE was induced in C57BL/6J mice with 150 ug/mouse MOG35-55 in CFA along with […] pertussis toxin on days 0 and 2. Anti-S1P antibody LT1002 (Sphingomab™) was administered i.v. at a dosage of 75 mg/Kg on day-1, followed by i.p. dosing at 25 mg/Kg every 2 days. Treated mice were followed for 25 days to study the effects of S1P-specific antibodies on the clinical manifestations of this acute model of EAE. Clinical manifestations of the disease include flaccid tail, and limb paralysis which may be scored to give an objective evaluation of clinical symptoms. The standard evaluation of disease severity in the EAE model measures clinical behavior on a 0-6 scale: 0) normal; 1) flaccid tail; 2) abnormal gait, hind leg weakness; 3) partial paralysis, severe ataxia; 4) minimal hind leg movement after painful stimulus; 5) no hind leg movement; 6) moribund state with little or no movement. Means were compared between groups to determine the effect of treatment on clinical scores and body weight gain. Statistical significance of clinical scores and weight were resolved using biostatistical analysis.
At day 17, two representative mice were sacrificed to study the cellular immune response (proliferation and cytokines) and to analyze CNS pathology. Spinal cords were dissected and sectioned. Sections were stained with hematoxylin and eosin (H&E) to reveal inflammatory cells, with Luxol to visualize myelin, or with silver stain to visualize axons. Total levels of CD4+FoxP3+Treg cells were evaluated by FACS analysis of blood samples taken from the tail on day 17. At day 25, treated mice were analyzed to see the effect of anti-S1P administration on the immune response.
Injection of synthetic MOG peptide (amino acids 35-55 of myelin oligodendrocyte glycoprotein, referred to as MOG35-55) causes mice to develop significant specific T cell responses in addition to neurological symptoms. Spahn et al., (1999) Eur. J. Immunol 29:4060-4071. Anti-S1P administration was associated with a significant decrease in this proliferative recall response to MOG35-55. Mice were primed by injections of MOG peptide. The spleens were removed and homogenized, and splenocytes were pulsed with different amounts of MOG peptide. Subsequently, cells were pulsed with radiolabel and incubated before cells were harvested and label incorporation was assessed by scintillation counting. […] As measured in cpm, the recall proliferative response was decreased by approximately 36%, 38% and 22% after anti-S1P antibody treatment (at 4 ug/ml, 20 ug/ml and 100 ug/ml of MOG35-55, respectively).

[5] = 75 mg/Kg i.v. day -1, then 25 mg/Kg i.p. every 2 days

**Q.** With “LT1009: humanized anti-S1P IgG1/kappa mAb with Cys to Ala in HCDR2, light chain with 5 backmutations; SEQ ID NO: 31/32” as the molecule, how does the “reduction in retinal neovascularization compared to saline control” value [1] read?
**A.** The value was ~4 fold.

**Q.** What about the “reduction in blood vessel leakage vs saline” value [2] of the same molecule?
**A.** The value was ~38%.

**Q.** What about the “reduction in neovascularization vs saline” value [2] of the same molecule?
**A.** The value was 50%.

**Q.** And the “area of choroidal neovascularization (PECAM-1)” value ([2]; one week after laser)?
**A.** The value was “approximately 0.015 mm^2”.

**Q.** What about the “area of leakage from choroidal neovascularization (fluorescein)” value ([2]; one week after laser) of the same molecule?
**A.** The value was “approximately 0.125 mm^2”.

B1: LT1002: murine anti-S1P monoclonal antibody, IgG1 kappa, from hybridoma clone 306D326.26 (antibody, listed as Mus sp., V domains shown)
VH: QAHLQQSDAELVKPGASVKISCKVSGFIFIDHTIHWMKQRPEQGLEWIGCISPRHDITKYNEMFRGKATLTADKSSTTAYIQVNSLTFEDSAVYFCARGGFYGSTIWFDFWGQGTTLTVS
VL: ETTVTQSPASLSMAIGEKVTIRCITTTDIDDDMNWFQQKPGEPPNLLISEGNILRPGVPSRFSSSGYGTDFLFTIENMLSEDVADYYCLQSDNLPFTFGSGTKLEIK
**Q.** What does the source list for B1?
**A.** Kd [3]: 0.026 nM; decrease in recall proliferative response to MOG35-55 (cpm) ([4]; 4 ug/ml MOG35-55): approximately 36%; decrease in recall proliferative response to MOG35-55 (cpm) ([4]; 20 ug/ml MOG35-55): ~38%; decrease in recall proliferative response to MOG35-55 (cpm) ([4]; 100 ug/ml MOG35-55): ~22%; EAE development [4, 5]: significant inhibition; EAE severity score (0-6 scale) at plateau [4, 5]: approximately 2; circulating lymphocytes ([4]; antibody-treated animals): approximately 10%; demyelination in spinal cord ([4]; antibody-treated animals): less than 1%; spleen CD4+ T cells, of lymphocytes in spleen ([4]; antibody-treated animals): approximately 7.6%; axonal loss ([4]; antibody-treated mice): less than 2%; CD4+CD25+Foxp3+ Treg in spleen ([4]; mouse, in vivo): significant increase; IFNγ secretion by splenocytes upon MOG35-55 stimulation ([4]; mouse, in vivo): lower levels; IL-10 secretion by splenocytes upon MOG35-55 stimulation ([4]; mouse, in vivo): higher levels; IL-17 secretion by splenocytes upon MOG35-55 stimulation ([4]; mouse, in vivo): lower levels; circulating CD4+CD25+Foxp3+ Treg cells ([4]; mouse, in vivo): statistically nonsignificant increase; decrease in spleen CD4+ T cells after antibody treatment ([4]; vs control animals): ~35%; decrease in circulating lymphocytes after antibody treatment ([4]; vs control animals with EAE): ~26%; decrease in axonal loss after treatment ([4]; vs untreated controls with EAE): ~91%; decrease in demyelination after treatment ([4]; vs untreated controls with EAE): ~92%; decrease in number of inflammatory cells/mm^2 in spinal cords ([4]; vs untreated controls with EAE): about 85%
